Results: patent publication US20090111104A1, “Method for Monitoring Hydrolytic Activity” (Fluorotechnics Pty Limited, priority 2005, published 2009)

Assays:
Format in all cases: biochemical, bovine
BSA [1] = molecular target: T1, BSA (Bos taurus, UniProt P02769); test: Tryptic digestion without dye, sub-sampled and quenched with protease inhibitors, then read with epicocconone (Example 8); conditions: no dye during digestion; sub-sampling and quenching with protease inhibitors
T1 construct: purchased Sigma-Aldrich A3059
T1 sequence (P02769 25-607): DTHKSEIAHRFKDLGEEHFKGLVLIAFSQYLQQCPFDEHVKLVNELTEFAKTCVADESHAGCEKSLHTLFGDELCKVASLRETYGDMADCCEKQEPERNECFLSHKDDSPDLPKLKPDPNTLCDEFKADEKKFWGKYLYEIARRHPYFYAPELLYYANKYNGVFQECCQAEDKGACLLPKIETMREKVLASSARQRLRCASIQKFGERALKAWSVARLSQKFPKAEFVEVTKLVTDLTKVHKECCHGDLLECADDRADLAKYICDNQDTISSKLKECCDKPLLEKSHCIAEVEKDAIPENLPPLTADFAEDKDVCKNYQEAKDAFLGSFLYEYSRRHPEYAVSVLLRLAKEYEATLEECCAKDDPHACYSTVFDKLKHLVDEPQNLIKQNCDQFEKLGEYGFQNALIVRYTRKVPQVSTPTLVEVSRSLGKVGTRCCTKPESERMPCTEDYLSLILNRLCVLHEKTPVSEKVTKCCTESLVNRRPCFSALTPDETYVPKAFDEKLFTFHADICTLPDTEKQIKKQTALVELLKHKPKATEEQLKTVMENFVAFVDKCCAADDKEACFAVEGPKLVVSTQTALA
Description: 1. The trypsin inhibitors, leupeptin and trypsin-inhibitor (soybean) were prepared at a concentration of 1 mM in RO water and 0.48 mg/mL in RO water, respectively. 2. The protein samples were prepared as previously described in Example 6. The reduced and alkylated protein samples were diluted 1:10 in 100 mM bicine buffer (pH 8.4-5). 3. Trypsin (4.62 μg) was added to each protein sample (231 μg/300 μL) at a ratio of 1:50 and the samples were incubated at 37° C. 4. Sub-samples were collected for inhibition of trypsin activity either by leupeptin or by trypsin inhibitor (soybean). • a. Forty-five microlitres of the tryptic digests were sub-sampled at 0, 10, 20, 30, 60, […], 90, and 120 minutes and immediately added to 1.5 mL tubes containing 5 μL of 1 mM leupeptin. The sub-samples treated with leupeptin inhibitor were left at room temperature until fluorescence was read. • b. […] The sub-samples treated with soybean trypsin inhibitor were left at room temperature until fluorescence was read. […] Fluorescence of the sub-samples was read at Ex/Em=540-10/630-10 nm with 10 flashes. […] The fluorescence value was normalised by subtracting basal fluorescence of corresponding controls from the raw fluorescence of the sub-samples. […]

BSA [2] = molecular target: T1, BSA; test: Tryptic digestion of BSA followed with SYPROorange; conditions: SYPROorange reporter dye
Description: • As per Example 2 above. • SYPROorange (24 mM in DMSO, Molecular Probes) diluted to 100-fold in 50 mM bicine
As per Example 2 except the Fluorostar plate reader was set to 480 nm excitation and 600 (±10 nm) bandpass emission filter.

BSA [3] = molecular target: T1, BSA; test: Real-time monitoring of BSA proteolysis with different fluorophores in the presence of detergent (Example 7); conditions: method of example 7, real-time with fluorophore and SDS
Description: • 1 Trypsin and papain digestion was carried out in bicine buffer at pH 8.4 and pH 7.0, respectively. • 2 BSA was prepared in 10 mg/mL in 100 mM bicine buffer. • 3 One hundred microliter of the BSA sample was used for trypsin and papain digestion.
7.2.2 Real-Time Monitoring of Trypsin Digestion with Fluorophores in the Presence of a Detergent • 1. The reduced and denatured BSA sample was diluted 10-fold in 100 mM bicine buffer (25 μL+225 μL bicine buffer). • 2. One hundred microliter of the sample (step 1) was added to a well in a 96-well microtiter plate. Controls included a bicine-based digestion buffer, a trypsin sample or papain only and an undigested BSA sample (no trypsin or no papain). The assay consists of a 4-well sample set for one fluorophore, e.g. SYPROorange. Three sets of samples were prepared in the same manners for the remaining fluorophores, e.g. Nile red, epicocconone and […]. • 3. SYPROorange stock solution was diluted 5000-fold in the bicine buffer (pH 8.4). Nile red and epicocconone and stock solutions were diluted 100-fold in the 100 mM bicine (pH 8.5). ANS was diluted 100-fold in the bicine buffer (pH 7.0). • 4. […] Fluorescence development was monitored in real time every 2 minutes up to 400 minutes using FluoStar (Ex/Em=485/600±10 for SYPROorange; 540±10/630±10 for epicocconone and Nile red; 355/460 for ANS). […]

B1: trypsin: Proteomics grade trypsin protease, Sigma-Aldrich T6567 (protein, UniProt P00761 9-231, looked up)
Trypsin: IVGGYTCAANSIPYQVSLNSGSHFCGGSLINSQWVVSAAHCYKSRIQVRLGEHNIDVLEGNEQFINAAKIITHPNFNGNTLDNDIMLIKLSSPATLNSRVATVSLPRSCAAAGTECLISGWGNTKSSGSSYPSLLQCLKAPVLSDSSCKSSYPGQITGNMICVGFLEGGKDSCQGDSGGPVVCNGQLQGIVSWGYGCAQKNKPGVYTKVCNYVNWIQQTIAAN
- pseudo-first order rate constant for digestion of BSA (BSA [1]): 0.3 min⁻¹
- apparent first order rate constant for tryptic digestion (BSA [2]): 0.1466 min⁻¹
- pseudo-first order rate constant for digestion of BSA (BSA [3]): 0.1 to 0.2 min⁻¹
